To fix the notation:
B1: human ICOSL (inducible co-stimulator ligand), full-length, isoform 1, N-terminal His-tag (ligand, not shown: small tags and cut ends)
chain: DTQEKEVRAMVGSDVELSCACPEGSRFDLNDVYVYWQTSESKTVVTYHIPQNSSLENVDSRYRNRALMSPAGMLRGDFSLRLFNVTPQDEQKFHCLVLSQSLGFQEVLSVEVTLHVAANFSVPVVSAPHSPSQDELTFTCTSINGYPRPNVYWINKTDNSLLDQALQNDTVFLNMRGLYDVVSVLRIARTPSVNIGCCIENVLLQQNLTVGSQTGNDIGERDKITENPVSTGEKNAAT
notes: The reagent list also names a bought human ICOSL-His Tag (Thermo Fisher 11559H08H50); also called hICOSL; B7h

In experiment [1] the target is T1, recombinant human integrin αvβ3 (R&D Systems, 3050-AV) (human, UniProt P06756 31-992; P05106 27-718).
T1 construct: Analyte in SPR; also called αvβ3 integrin
Nature of the experiment: SPR (Biacore T200), ICOSL immobilised on CM5, αvβ3 as analyte, Mn2+ (active integrin), kinetic 1:1 Langmuir fit (kd/ka). (In general: In SPR one partner is held on a chip, and binding of the other changes the refractive index at the surface.)

In experiment [2] the target is T1, recombinant human integrin αvβ3 (R&D …). As to the kind of experiment: SPR, ICOSL immobilised, inactive αvβ3 (EDTA, no Mn2+), steady-state affinity fit.
For experiment [3], the target named is recombinant human integrin αvβ5 (R&D Systems, 2528-AV) (human, UniProt P06756 31-992; P18084 24-719). Nature of the experiment: SPR, ICOSL immobilised, integrin as analyte.
The target in experiment [4] is T2, recombinant human integrin αIIbβ3 (R&D Systems, 7148-A2) (human, UniProt P08514 32-993; P05106 27-718).
T2 construct: also called αllbβ3
As to the kind of experiment: SPR, ICOSL immobilised, integrin as analyte.

Experiment [5] has as its target B1. Nature of the experiment: SPR.
Experiment [6] has as its target T3, recombinant mouse integrin αvβ3 (R&D Systems, 7889-AV-050) (mouse, UniProt P43406 31-988; O54890 26-717).
T3 construct: also called mouse αvβ3 integrin
Nature of the experiment: SPR, ICOSL immobilised, αvβ3 as analyte, 0.2 mM Ca2+ and 0.1 mM Mg2+, kinetic 1:1 fit.

Experiment [7] has as its target T3, recombinant mouse integrin αvβ3 (R&D …). As to the kind of experiment: SPR (Biacore T200), ICOSL immobilised on CM5, αvβ3 as analyte, Mn2+ (active integrin), kinetic 1:1 Langmuir fit (kd/ka).
The target is the same in experiment [8]. As to the kind of experiment: SPR, ICOSL immobilised, inactive αvβ3 (EDTA, no Mn2+), steady-state affinity fit.
For experiment [9] the target is unchanged. As to the kind of experiment: SPR, ICOSL immobilised, αvβ3 as analyte, 2 mM Ca2+ and 1 mM Mg2+ (inactive integrin).
In experiment [10] the target is T1, recombinant human integrin αvβ3 (R&D …). Nature of the experiment: SPR, Mn2+ (active integrin).

T3 sequence (P43406 31-988 limits assumed, chain 1 of 2): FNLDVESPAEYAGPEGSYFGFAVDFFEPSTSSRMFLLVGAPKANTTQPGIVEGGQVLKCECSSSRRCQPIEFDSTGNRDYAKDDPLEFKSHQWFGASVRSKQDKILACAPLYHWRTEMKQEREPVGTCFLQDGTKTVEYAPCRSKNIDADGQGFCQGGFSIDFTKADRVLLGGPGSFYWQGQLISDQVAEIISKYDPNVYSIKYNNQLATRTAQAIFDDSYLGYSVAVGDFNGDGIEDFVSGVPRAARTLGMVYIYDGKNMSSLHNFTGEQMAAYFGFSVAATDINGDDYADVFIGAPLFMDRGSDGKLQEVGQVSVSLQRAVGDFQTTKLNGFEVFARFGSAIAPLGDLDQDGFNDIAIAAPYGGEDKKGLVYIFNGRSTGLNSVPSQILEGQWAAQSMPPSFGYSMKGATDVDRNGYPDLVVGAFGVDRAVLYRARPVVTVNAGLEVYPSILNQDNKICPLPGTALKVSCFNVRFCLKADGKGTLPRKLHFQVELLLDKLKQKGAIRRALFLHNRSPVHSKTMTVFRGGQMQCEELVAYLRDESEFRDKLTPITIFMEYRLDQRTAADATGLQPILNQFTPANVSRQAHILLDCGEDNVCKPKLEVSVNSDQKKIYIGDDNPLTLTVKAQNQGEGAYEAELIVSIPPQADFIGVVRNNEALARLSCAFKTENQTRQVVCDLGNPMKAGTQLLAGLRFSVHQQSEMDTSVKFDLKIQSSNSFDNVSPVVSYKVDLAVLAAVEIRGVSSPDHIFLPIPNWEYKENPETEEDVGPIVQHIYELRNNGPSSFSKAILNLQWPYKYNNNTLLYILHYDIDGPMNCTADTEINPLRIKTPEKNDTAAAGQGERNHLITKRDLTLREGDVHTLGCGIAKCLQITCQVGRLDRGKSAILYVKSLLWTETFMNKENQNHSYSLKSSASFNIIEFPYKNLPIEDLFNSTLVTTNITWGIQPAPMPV
T3 sequence (O54890 26-717 limits assumed, chain 2 of 2): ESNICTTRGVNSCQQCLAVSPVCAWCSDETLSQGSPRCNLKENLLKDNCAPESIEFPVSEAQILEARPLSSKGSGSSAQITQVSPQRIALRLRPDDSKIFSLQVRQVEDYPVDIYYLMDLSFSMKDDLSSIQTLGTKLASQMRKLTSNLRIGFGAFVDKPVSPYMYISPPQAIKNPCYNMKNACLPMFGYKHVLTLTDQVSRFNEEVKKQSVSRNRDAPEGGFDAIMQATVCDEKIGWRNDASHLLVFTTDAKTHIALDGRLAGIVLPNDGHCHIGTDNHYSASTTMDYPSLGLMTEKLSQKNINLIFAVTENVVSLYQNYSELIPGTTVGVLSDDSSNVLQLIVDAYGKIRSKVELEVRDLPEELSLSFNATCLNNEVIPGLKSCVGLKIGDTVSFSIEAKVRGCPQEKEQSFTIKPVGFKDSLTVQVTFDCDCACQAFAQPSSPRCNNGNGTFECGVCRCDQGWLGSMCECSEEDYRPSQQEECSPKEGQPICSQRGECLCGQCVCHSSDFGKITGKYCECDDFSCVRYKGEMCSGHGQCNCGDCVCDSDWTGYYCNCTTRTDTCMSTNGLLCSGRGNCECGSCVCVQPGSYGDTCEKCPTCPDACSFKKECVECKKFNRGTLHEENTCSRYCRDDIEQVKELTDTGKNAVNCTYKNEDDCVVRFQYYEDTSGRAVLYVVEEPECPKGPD
T1 sequence (P06756 31-992 limits assumed, chain 1 of 2): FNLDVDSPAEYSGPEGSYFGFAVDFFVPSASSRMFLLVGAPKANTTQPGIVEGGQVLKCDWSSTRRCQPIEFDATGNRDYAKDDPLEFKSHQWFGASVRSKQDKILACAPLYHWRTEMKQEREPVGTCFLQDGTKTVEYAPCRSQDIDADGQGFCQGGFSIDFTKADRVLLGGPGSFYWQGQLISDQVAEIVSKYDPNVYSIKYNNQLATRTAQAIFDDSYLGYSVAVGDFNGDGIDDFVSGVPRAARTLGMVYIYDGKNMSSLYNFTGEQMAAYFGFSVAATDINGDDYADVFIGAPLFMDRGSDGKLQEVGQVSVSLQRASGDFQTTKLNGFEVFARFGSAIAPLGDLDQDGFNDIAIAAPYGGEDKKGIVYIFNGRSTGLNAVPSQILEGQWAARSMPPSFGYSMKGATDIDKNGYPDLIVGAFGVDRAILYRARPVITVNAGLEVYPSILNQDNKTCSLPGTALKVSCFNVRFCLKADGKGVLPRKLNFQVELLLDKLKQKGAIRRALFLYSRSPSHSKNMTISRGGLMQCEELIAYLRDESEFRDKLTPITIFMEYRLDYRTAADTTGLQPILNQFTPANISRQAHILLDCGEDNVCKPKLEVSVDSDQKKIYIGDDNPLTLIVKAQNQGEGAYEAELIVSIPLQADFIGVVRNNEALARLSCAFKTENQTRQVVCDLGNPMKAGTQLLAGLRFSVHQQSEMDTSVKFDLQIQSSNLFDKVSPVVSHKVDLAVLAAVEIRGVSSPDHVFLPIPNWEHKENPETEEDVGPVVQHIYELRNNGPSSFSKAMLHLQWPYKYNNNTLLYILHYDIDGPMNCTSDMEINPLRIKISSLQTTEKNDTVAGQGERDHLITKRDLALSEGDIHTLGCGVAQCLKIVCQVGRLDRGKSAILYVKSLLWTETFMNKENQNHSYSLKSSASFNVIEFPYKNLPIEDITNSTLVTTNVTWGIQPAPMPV
T1 sequence (P05106 27-718 limits assumed, chain 2 of 2): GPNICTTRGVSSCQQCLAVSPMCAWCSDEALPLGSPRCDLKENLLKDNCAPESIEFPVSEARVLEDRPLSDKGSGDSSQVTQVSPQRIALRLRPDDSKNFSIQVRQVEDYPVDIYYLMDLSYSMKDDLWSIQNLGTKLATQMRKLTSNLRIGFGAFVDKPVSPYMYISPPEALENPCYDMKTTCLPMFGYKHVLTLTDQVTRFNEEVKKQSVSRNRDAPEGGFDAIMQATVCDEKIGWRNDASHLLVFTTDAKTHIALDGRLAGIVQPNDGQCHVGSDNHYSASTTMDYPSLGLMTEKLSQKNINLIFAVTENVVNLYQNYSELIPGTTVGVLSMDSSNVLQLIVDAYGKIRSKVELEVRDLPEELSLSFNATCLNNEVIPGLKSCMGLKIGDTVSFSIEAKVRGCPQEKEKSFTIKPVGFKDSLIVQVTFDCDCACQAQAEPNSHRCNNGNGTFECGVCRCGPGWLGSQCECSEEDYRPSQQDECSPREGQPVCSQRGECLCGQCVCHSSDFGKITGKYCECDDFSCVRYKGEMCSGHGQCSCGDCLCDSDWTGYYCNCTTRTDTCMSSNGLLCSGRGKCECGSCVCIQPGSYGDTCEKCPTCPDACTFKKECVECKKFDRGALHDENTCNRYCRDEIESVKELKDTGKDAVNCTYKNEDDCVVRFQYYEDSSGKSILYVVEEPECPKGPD
T2 sequence (P08514 32-993 limits assumed, chain 1 of 2): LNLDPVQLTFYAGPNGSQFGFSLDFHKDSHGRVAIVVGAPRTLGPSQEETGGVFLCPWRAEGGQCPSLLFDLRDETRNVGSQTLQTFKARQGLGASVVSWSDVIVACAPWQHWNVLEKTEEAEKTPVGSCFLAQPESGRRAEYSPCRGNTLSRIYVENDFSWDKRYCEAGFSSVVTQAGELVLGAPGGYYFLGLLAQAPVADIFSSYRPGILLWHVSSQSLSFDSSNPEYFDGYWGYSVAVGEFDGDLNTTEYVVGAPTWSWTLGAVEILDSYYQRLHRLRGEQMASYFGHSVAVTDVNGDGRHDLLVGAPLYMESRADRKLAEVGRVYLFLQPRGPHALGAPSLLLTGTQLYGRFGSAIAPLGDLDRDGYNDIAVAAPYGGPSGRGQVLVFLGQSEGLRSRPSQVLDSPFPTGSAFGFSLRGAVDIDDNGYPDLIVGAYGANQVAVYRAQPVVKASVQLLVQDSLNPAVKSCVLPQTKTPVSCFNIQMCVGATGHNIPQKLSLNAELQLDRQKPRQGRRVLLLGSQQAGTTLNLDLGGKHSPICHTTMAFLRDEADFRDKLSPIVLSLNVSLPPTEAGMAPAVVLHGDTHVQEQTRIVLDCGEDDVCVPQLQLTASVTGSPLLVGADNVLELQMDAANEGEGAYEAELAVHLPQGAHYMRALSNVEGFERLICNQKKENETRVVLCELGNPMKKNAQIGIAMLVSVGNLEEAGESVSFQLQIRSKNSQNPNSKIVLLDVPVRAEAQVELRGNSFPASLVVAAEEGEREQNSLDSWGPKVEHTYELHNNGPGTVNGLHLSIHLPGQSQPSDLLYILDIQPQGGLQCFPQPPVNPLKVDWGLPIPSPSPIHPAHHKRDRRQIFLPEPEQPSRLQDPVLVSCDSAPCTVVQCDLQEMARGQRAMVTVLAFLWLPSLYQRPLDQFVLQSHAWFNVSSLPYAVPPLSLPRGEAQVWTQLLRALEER
T2 sequence (P05106 27-718 limits assumed, chain 2 of 2): as the sequence (P05106 27-718 limits assumed, chain 2 of 2) above
Chain of recombinant human integrin αvβ5 (R&D Systems, 2528-AV) (P06756 31-992 limits assumed, chain 1 of 2): as the sequence (P06756 31-992 limits assumed, chain 1 of 2) above
Chain of recombinant human integrin αvβ5 (R&D Systems, 2528-AV) (P18084 24-719 limits assumed, chain 2 of 2): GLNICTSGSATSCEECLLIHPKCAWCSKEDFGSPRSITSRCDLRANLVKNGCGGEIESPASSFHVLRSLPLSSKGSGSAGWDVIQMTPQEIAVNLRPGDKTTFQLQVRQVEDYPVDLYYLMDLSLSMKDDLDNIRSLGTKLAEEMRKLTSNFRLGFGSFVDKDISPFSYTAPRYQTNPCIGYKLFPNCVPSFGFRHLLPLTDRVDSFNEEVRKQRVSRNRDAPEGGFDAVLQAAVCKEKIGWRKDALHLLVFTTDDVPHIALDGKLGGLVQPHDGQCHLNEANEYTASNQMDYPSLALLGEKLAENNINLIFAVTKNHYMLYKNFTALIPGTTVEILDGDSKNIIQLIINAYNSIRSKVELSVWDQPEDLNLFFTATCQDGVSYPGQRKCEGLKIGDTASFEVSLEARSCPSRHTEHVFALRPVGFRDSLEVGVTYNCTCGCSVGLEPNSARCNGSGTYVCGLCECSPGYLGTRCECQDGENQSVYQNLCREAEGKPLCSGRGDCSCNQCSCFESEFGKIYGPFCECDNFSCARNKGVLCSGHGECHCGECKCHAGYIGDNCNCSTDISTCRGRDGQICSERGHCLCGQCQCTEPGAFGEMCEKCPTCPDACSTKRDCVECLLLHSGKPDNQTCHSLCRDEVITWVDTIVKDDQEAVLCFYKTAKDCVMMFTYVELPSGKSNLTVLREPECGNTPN

As for B1, the Kd in experiment [1] was 0.0162 µM; in experiment [2], 0.412 µM. The binding result in [3] and in experiment [4] was “no binding” in each case.

B2: recombinant human ICOS (R&D Systems, 169-CS) (receptor, UniProt Q9Y6W8 21-141, looked up)
chain: EINGSANYEMFIFHNGGVQILCKYPDIVQQFKMQLLKGGQILCDLTKTKGSGNTVSIKSLKFCHSQLSNNSVSFFLYNLDHSHANYYFCNLSIFDPPPFKVTLTGGYLHIYESQLCCQLKF
In the case of B2, in experiment [5], the Kd turned out to be 0.005 µM.

B3: mouse ICOSL, wild type (RGD), full-length, N-terminal His-tag (ligand, not shown: small tags and cut ends)
chain: ETEVGAMVGSNVVLSCIDPHRRHFNLSGLYVYWQIENPEVSVTYYLPYKSPGINVDSSYKNRGHLSLDSMKQGNFSLYLKNVTPQDTQEFTCRVFMNTATELVKILEEVVRLRVAANFSTPVISTSDSSNPGQERTYTCMSKNGYPEPNLYWINTTDNSLIDTALQNNTVYLNKLGLYDVISTLRLPWTSRGDVLCCVENVALHQNITSISQAESFTGNNTKNPQETHNNE
notes: also called mICOSL; WT mICOSL
Consider B3, for which the Kd in [6] was 0.0213 µM; in experiment [7], 0.0242 µM; in experiment [8], at least 2000 µM; in experiment [9] it was 0.4 µM.

B4: recombinant human B7.1 (R&D Systems, 140-B1) (ligand, UniProt P33681 35-242, looked up)
chain: VIHVTKEVKEVATLSCGHNVSVEELAQTRIYWQKEKKMVLTMMSGDMNIWPEYKNRTIFDITNNLSIVILALRPSDEGTYECVVLKYEKDAFKREHLAEVTLSVKADFPTPSISDFEIPTSNIRRIICSTSGGFPEPHLSWLENGEELNAINTTVSQDPETELYAVSSKLDFNMTTNHSFMCLIKYGHLRVNQTFNWNTTKQEHFPDN
notes: also called RGD-lacking B7.1
For the molecule B4, the binding result in experiment [10] is given as “no binding”.

Usually Kd stands for the concentration at which binding is half-saturated.

The values above are taken from US20210208163A1 (RUSH UNIVERSITY MEDICAL CENTER, published 2021).
